{
  "source": "paper PMC3898896",
  "about": "(Journal of Molecular Biology, 2013)",
  "biological_target": "the molecule itself",
  "assay": "crystal structure",
  "data": [
    {"protein": "N-terminal dimerization domain of S. pombe Cdc23 (Cdc23^N19-302,Y302A) (domain or fragment, UniProt O94556 19-302, looked up) QLREIRNCLLKCISECSERGLVYAVRWAAEMLNGMNPIEMEHIPFSSTPTGEFDLDPDMANEKLLEVEEKNIYLLAKSYFDCKEFERAAYTLQNCKSSKSIFLRLYSKYLAGEKKSEEENETLLNTNLTLSSTNREFYYISEVLESLHYQGNKDPYLLYLSGVVYRKRKQDSKAIDFLKSCVLKAPFFWSAWLELSLSIDSLETLTTVVSQLPSTHIMTKIFYVYASHELHQVNSSAYEKLAEAEIIFPNSRYLKTQRALLTYDSRDFDEAESLFENILTNDPA", "values": [
      {"measurement": "stoichiometry N", "value": 2}
    ]}
  ]
}
